Measured values taken from patent US20090075291A1, “PEPTIDE-BASED REGULATION OF GAP JUNCTIONS” (The Research Foundation of State University of New York, priority 2006, published 2009).

Experiments:
Cx43CT [1] = biological target: T1, Cx43CT (Rattus norvegicus, UniProt P08050); assay: Surface Plasmon Resonance (SPR) binding of synthetic peptides to immobilised recombinant Cx43CT; settings: for SPR binding to Cx43CT (in words): Cx43CT bound to carboxymethyl dextran matrix
T1 construct: GST (N, cleaved yes); made in house; host or cells: E. coli BL-21
T1 sequence (P08050 255-382): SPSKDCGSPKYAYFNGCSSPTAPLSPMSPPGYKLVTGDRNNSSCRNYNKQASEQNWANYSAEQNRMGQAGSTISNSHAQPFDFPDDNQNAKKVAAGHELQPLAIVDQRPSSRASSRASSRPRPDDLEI
Excerpt: Recombinant Cx43CT was produced as described in Duffy et al., “pH-Dependent Intramolecular Binding and Structure Involving Cx43 Cytoplasmic Domains,” J. Biol. Chem. 277(39):36706-36714 (2002), which is hereby incorporated by reference in its entirety. Briefly, cDNA derived from rat Cx43 was inserted into pGEX-6P-2 (Amersham) and expressed in E. coli (BL-21). The resultant GST-fusion protein was cleaved from the GST PreScission Protease® (Amersham Biosciences). The recombinant product after cleavage contained the sequence 255-382 of rCx43 preceded by four additional amino acids (GPLG). Protein concentration was measured using the Bio-Rad DC Protein Assay. Protein purity was assessed by SDS-PAGE.
Recombinant Cx43CT was covalently bound to a carboxylmethyl dextran matrix (Salamon et al., “Surface Plasmon Resonance Spectroscopy as a Tool for Investigating the Biochemical and Biophysical Properties of Membrane Protein Systems. II: Applications to Biological Systems,” Biochim. Biophys. Acta 1331(2):131-152 (1997), which is hereby incorporated by reference in its entirety). Specific peptides were presented and, when feasible, dissociation constants (KD) were calculated from the time course of binding and unbinding of the ligand, using a 1:1 (Langmuir) association and dissociation kinetic model (Biacore software package). In both phases (association and dissociation), the first 5-8 seconds of recording were not included in the fit, to avoid artifacts resulting from peptide distribution within the flow cells (Lang et al., “Surface Plasmon Resonance as a Method to Study the Kinetics and Amplitude of Protein-protein Binding,” in PRACTICAL METHODS IN CARDIOVASCULAR RESEARCH 936-947 (Stefan Dhein, Friedrich Wilhelm Mohr & Mario Delmar eds., 2005), which is hereby incorporated by reference in its entirety).
Phage display allows for the rapid screening of thousands of peptides, but the characteristics of binding cannot be properly defined. Furthermore, the peptides are part of a capsid protein, which may affect the ability of the peptide to properly interact with the target protein. Therefore, some of the peptides identified by the phage screening were selected to, using SPR, further characterize their ability to bind Cx43CT. Recombinant Cx43CT was covalently bound to a carboxymethyl dextran matrix and synthetic peptides presented for binding. A total of six 12-mer peptides from the non-biased screening (peptides labeled RXP1 to RXP6 in Table 1) and 5 peptides from the biased screening (labeled RXP-A to RXP-E in Table 3) were tested. […] Peptide RXP4 (SEQ ID NO:15) caused the largest deflection in SPR signal. RXP4 (250 μM) was added at time “zero.” Washout was initiated after two minutes of exposure. […] Higher concentrations of the peptide were tested but an asymptotic maximum response could not be detected. In addition, dissociation rates were too fast to reliably use them to calculate the kinetics of binding.
A different result emerged from the testing of the doublets. […] The transitions were well-fit by exponential functions and the rates of association and dissociation were used as described in Example 4 to estimate the kinetic parameters. A full range of concentrations was tested in three separate occasions and at two different pHs of the solvent (6.5 and 7.4). […] Adhes. 8(4-6):219-223 (2001), which is hereby incorporated by reference in its entirety), and that measured for the binding of Aquaporin-0 to Cx45.6 (Yin et al., “The Development-associated Cleavage of Lens Connexin 45.6 by Caspase-3-like Protease is Regulated by Casein Kinase II-mediated Phosphorylation,” J. Biol. Chem. 276(37):34567-34572 (2001), which is hereby incorporated by reference in its entirety).
The peptides were tested for binding to the carboxyl terminal domain of Cx43 using Surface Plasmon Resonance (“SPR”). […]

Cx43CT [2] = biological target: T1, Cx43CT; assay: Biased (XXXXRXPXXXX) phage display screening against Cx43CT; format: binding; settings: for Total Frequency (%): all three runs, 402 inserts sequenced; for Frequency Run 2(%) / Frequency Run 1 (%): binding step at pH 6.5; for Frequency Run 2(%): 119 inserts sequenced; for Frequency Run 1 (%): 120 inserts sequenced; for Frequency Run 3 (%): binding step at pH 7.4, 163 inserts sequenced
Method: A “library” of bacteriophage, displaying ˜[…] of 2.7×10^9 random 12-mer peptides (Ph.D.-12™ Phage display peptide library kit; New England BioLabs Inc.) was utilized. Wells in 24-well plates were coated with 15 μg of recombinant CT and blocked with 5 mg/ml BSA. After removing the unbound viruses by washing with Tris buffered saline containing 0.5% tween-20 (TBS-T), low affinity binders were eluted with a solution of TBS-containing Cx43CT at a concentration of 100 μg/ml. High affinity binders were recovered by overlaying the well with a culture of E. coli, to allow the tightly bound phage to infect the bacteria. This culture was amplified and the virus was precipitated with PEG. The amplified product was used for the subsequent round of panning. All steps were conducted at pH 6.5 unless otherwise indicated.
After three rounds of selection and amplification, the phage recovered from the last round of binding were grown on a lawn of E. coli for plaque purification. Each plaque, representing a single clone, was picked and amplified. The phage were isolated and analyzed by DNA sequencing.
The Ph.D. Peptide Display Cloning System (New England BioLabs Inc.) was used to create a biased phage display library of sequence XXXXRXPXXXX, where X is any amino acid flanking an arginine and a proline with an additional random residue at the center. The randomized peptides were followed by a Gly-Gly-Gly-Ser (SEQ ID NO:2) spacer. The library was cloned into M13 phage. These phage were analyzed for titer and sequence prior to screening for Cx43CT binding as described above.
The RXP motif was not detected in phage that bound to streptavidin. The motif occurred in different positions within the 12-mer peptide, thus preventing proper alignments to determine the frequency of other amino acids at specific positions relative to the RXP. To overcome this limitation and to search for peptides with higher binding affinity (see Example 10), a biased phage display library was generated where the RXP motif was forced to the center of the sequence, flanked at each side by 4 randomized amino acids. Sixty clones containing an insert (out of an estimated 3-4×10^4 total clones in the library) were chosen at random for sequencing prior to exposure of the library to Cx43CT. All inserts coded for an 11-mer peptide with the RXP motif in the appropriate location. In three independent runs, the same library was presented to Cx43CT. The binding step was carried out at pH 6.5 in two of the runs (run 1 and 2) and at pH 7.4 in one additional run (run 3). The total number of phage plaques containing a full coding insert that were recovered after the binding step were 120, 119 and 163 for runs 1, 2 and 3, respectively. […] These inserts may be consequent to incomplete restriction enzyme digestion as well as possible residual activity of the Klenow polymerase used in second strand production. The combination of these two factors would result in blunt ends that subsequently ligated. […] Furthermore, five specific peptides were recovered from all three runs and represented a large fraction of the repeats observed within the same run (see Table 2).

Cx43CT [3] = biological target: T1, Cx43CT; assay: NMR 15N-HSQC resonance shifts of 15N-Cx43CT in presence of peptide; format: binding; settings: PBS pH 5.8, peptide to Cx43CT about 2.4 mM to 0.8 mM (3:1)
Method: All NMR data were acquired on a Varian INOVA 600-MHz NMR spectrometer using a cryoprobe (MacUra & Ernst, “Elucidation of Cross Relaxation in Liquids by Two-dimensional NMR Spectroscopy,” Mol. Phys. 41:95-117 (1980), which is hereby incorporated by reference in its entirety); the sample temperature was maintained at 7° C. Gradient-enhanced two-dimensional ^1H-^15N HSQC experiments (Kay et al., “Pure Absorption Gradient Enhanced Heteronuclear Single Quantum Correlation Spectroscopy with Improved Sensitivity,” J. Am. Chem. Soc. 114:10663-10665 (1992), which is hereby incorporated by reference in its entirety) were used to observe all backbone amide resonances in ^15N-labeled Cx43CT. Data were acquired with 1024 complex points in t2 and 128 complex points in t1. Sweep widths were 10,000 Hz in the proton dimension and 2,500 Hz in the nitrogen dimension. The concentration of RXP peptide to Cx43CT was approximately 2.4 mM to 0.8 mM, respectively (3:1 ratio). All NMR data were processed using NMRPipe (Delaglio et al., “NMRPipe: A Multidimensional Spectral Processing System Based on UNIX Pipes,” J. Biomol. NMR 6(3):277-293 (1995), which is hereby incorporated by reference in its entirety) and analyzed using NMRView (Sorgen, “How to Solve a Protein Structure by Nuclear Magnetic Resonance The Connexin43 Carboxyl Terminal Domain,” in PRACTICAL METHODS IN CARDIOVASCULAR RESEARCH 948-958 (Stefan Dhein, Friedrich Wilhelm Mohr & Mario Delmar eds., 2005), which is hereby incorporated by reference in its entirety).
Peptides RXP1, RXP4 and RXP-E were tested for their ability to modify the structure of Cx43CT. The peptides were diluted in PBS (pH 5.8) containing ^15N-Cx43CT, and ^15N-HSQC spectra were acquired. Results for RXP4 and RXP-E are shown in FIGS. 4A (RXP4) and 4B (RXP-E). The specific resonance peaks that correspond to each amino acid in the Cx43CT sequence have been assigned (Sorgen et al., “Sequence-specific Resonance Assignment of the Carboxyl Terminal Domain of Connexin43,” J. Biomol. NMR 23(3):245-246 (2002), which is hereby incorporated by reference in its entirety). […]

Substance	Response (SPR amplitude) (Cx43CT [1]; peptide concentration 1.0 mM)	Total Frequency (%) (Cx43CT [2])	Frequency Run 2(%) (Cx43CT [2])	Frequency Run 1 (%) (Cx43CT [2])	Frequency Run 3 (%) (Cx43CT [2])	further results
AcRNP-NH2 (Ac-Arg-Asn-Pro-NH2) [Peptide 2502, small RXP peptide]	4.6 arbitrary units	–	–	–	–	–
AcRNPRNP-NH2 (Ac-RNPRNP-NH2) [Peptide 2501]	24.8 arbitrary units	–	–	–	–	Response (SPR amplitude) (Cx43CT [1]; peptide concentration 500 μM): 14.4 arbitrary units
AcRRKP-NH2 (Ac-RRKP-NH2) [Peptide 2504]	46.5 arbitrary units	–	–	–	–	–
AcRRKPRRKP-NH2 (Ac-RRKPRRKP-NH2) [Peptide 2503]	294.7 arbitrary units	–	–	–	–	Response (SPR amplitude) (Cx43CT [1]; peptide concentration 25 μM): 27.5 arbitrary units; Response (SPR amplitude) (Cx43CT [1]; peptide concentration 100 μM): 80.6 arbitrary units; Response (SPR amplitude) (Cx43CT [1]; peptide concentration 250 μM): 147.0 arbitrary units; Response (SPR amplitude) (Cx43CT [1]; peptide concentration 500 μM): 214.8 arbitrary units
AcRRNP-NH2 (Ac-RRNP-NH2) [Peptide 2505]	34.9 arbitrary units	–	–	–	–	–
G H L H L R V P T L K M (GHLHLRVPTLKM; RXP-containing peptide) [RXP1]	–	–	–	–	–	Shift of Cx43CT resonance peaks (15N-HSQC) (Cx43CT [3]): no resonance shifts were observed; SPR binding to Cx43CT (in words) (Cx43CT [1]): detectable, pH-dependent binding; SPR binding to Cx43CT (in words) (Cx43CT [1]; listed as RXP-1): very weak (almost undetectable) interaction
GIAAREPNSHDGGGSAHARVPFYSHSRDLWRKPAKSL (RXP-containing peptide)	–	15.2%	11.8%	12.5%	19.6%	–
R R P P Y R V P R K L F (RRPPYRVPPKLF) [RXP4]	–	–	–	–	–	Shift of Cx43CT resonance peaks (15N-HSQC) (Cx43CT [3]): strongly affected the resonance peaks of residues R376, D378, and D379; Shift of Cx43CT resonance peaks (15N-HSQC) (Cx43CT [3]; listed as RXP-4): caused a shift in the position of residues 376, 378 and 379, as well as residues 343-346; SPR binding to Cx43CT (in words) (Cx43CT [1]): too weak to allow for proper calculation of kinetic values; SPR binding to Cx43CT (in words) (Cx43CT [1]; listed as RXP-4): weak intermolecular binding

More lines, main results first:

Response (SPR amplitude) (Cx43CT [1]; peptide concentration 1.0 mM)	Total Frequency (%) (Cx43CT [2])	Frequency Run 2(%) (Cx43CT [2])	Frequency Run 1 (%) (Cx43CT [2])	Frequency Run 3 (%) (Cx43CT [2])	Substance	further results
–	40%	64.7%	20.8%	36.2%	DVPGRDPGYIKGGGSAHARVPFYSHSLNRNRKPSLYQ (RXP-containing peptide) [RXP-A]	–
–	8.2%	2.5%	6.7%	13.5%	EIQPRSPLMFSGGGSAHARVPFYSHSAKEARWPRAHR (RXP-containing peptide) [RXP-B]	–
–	6%	0.8%	16.7%	1.8%	WEEPRRPFTMSGGGSAETHARVPFYSHSPMRHRLPGVHL (RXP-containing peptide) [RXP-D]	–
